In PMC9638944, “ATM-mediated ELL phosphorylation enhances its self-association through increased EAF1 interaction and inhibits global transcription during genotoxic stress” (Nucleic Acids Research, 2022):

T1: GST-ELL (human, UniProt P55199 1-621)
T1 construct: ELL (aka ELL1), human; Cloned in pET-GST
T1 sequence (looked up): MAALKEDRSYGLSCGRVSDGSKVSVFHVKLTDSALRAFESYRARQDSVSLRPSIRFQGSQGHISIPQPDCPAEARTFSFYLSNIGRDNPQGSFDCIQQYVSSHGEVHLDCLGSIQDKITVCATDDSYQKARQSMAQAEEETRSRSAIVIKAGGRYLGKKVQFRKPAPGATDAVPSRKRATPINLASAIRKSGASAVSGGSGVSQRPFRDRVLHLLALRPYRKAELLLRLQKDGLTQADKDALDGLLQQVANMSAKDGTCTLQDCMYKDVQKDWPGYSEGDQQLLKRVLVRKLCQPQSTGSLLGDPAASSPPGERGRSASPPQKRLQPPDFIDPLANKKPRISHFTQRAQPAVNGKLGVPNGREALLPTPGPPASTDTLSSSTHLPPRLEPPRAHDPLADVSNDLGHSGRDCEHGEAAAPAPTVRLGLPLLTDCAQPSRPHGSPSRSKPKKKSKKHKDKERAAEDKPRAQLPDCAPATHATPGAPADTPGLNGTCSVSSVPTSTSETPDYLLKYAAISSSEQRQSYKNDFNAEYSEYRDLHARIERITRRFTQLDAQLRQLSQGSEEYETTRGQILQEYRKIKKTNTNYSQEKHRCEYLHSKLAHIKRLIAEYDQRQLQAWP


Legend:
EAF1 = EAF1 (UniProt Q96JC9); experiment: IP of tagged ELL, EAF1 blot; conditions: reference: wild type ELL; sites T551,S561,S589
[1] = molecular target: the molecule itself; experiment: co-sedimentation; glycerol gradient of purified recombinant His-GFP-ELL
GST-ELL = molecular target: T1, GST-ELL; experiment: pull-down; GST or GST-ELL bound to glutathione beads incubated with purified prey in 20 mM Tris-Cl pH 8, 20% glycerol, 2 mM EDTA, 150 mM KCl, BSA 20 ng/μl, 0.1% NP-40, 10–12 h, 4°C; immunoblot; some panels with purified EAF1 added; conditions: both partners purified

Row | binding against the reference (EAF1) | binding result (GST-ELL) | Molecule | binding result [1]
1 | weaker | – | ELL (aka ELL1) (from UniProt P55199) ELL TM (T551A, S561A, S589A) | –
2 | – | binds | His-GFP-ELL (natural protein, human, UniProt P55199 1-621, looked up, ELL (aka ELL1), human; Cloned in pET-11d; also called GFP-ELL (in vitro); purified recombinant ELL protein; source: E. coli BL21(DE3), purified (Ni-NTA)) MAALKEDRSYGLSCGRVSDGSKVSVFHVKLTDSALRAFESYRARQDSVSLRPSIRFQGSQGHISIPQPDCPAEARTFSFYLSNIGRDNPQGSFDCIQQYVSSHGEVHLDCLGSIQDKITVCATDDSYQKARQSMAQAEEETRSRSAIVIKAGGRYLGKKVQFRKPAPGATDAVPSRKRATPINLASAIRKSGASAVSGGSGVSQRPFRDRVLHLLALRPYRKAELLLRLQKDGLTQADKDALDGLLQQVANMSAKDGTCTLQDCMYKDVQKDWPGYSEGDQQLLKRVLVRKLCQPQSTGSLLGDPAASSPPGERGRSASPPQKRLQPPDFIDPLANKKPRISHFTQRAQPAVNGKLGVPNGREALLPTPGPPASTDTLSSSTHLPPRLEPPRAHDPLADVSNDLGHSGRDCEHGEAAAPAPTVRLGLPLLTDCAQPSRPHGSPSRSKPKKKSKKHKDKERAAEDKPRAQLPDCAPATHATPGAPADTPGLNGTCSVSSVPTSTSETPDYLLKYAAISSSEQRQSYKNDFNAEYSEYRDLHARIERITRRFTQLDAQLRQLSQGSEEYETTRGQILQEYRKIKKTNTNYSQEKHRCEYLHSKLAHIKRLIAEYDQRQLQAWP | binds
